Measurements from patent US20050058634A1.

Columns and labels:
[1] = target: Soluble cation-independent mannose 6-phosphate receptor (CI-MPR) purified from fetal bovine serum, coupled to Affigel-15 beads (CI-MPR column) (bovine (fetal bovine serum)) (UniProt P08169); test: CI-MPR column fractionation, beta-glucuronidase activity (FIG. 6)
[2] = target: Soluble cation-independent mannose 6-phosphate receptor (CI-MPR) purified from fetal bovine serum, coupled to Affigel-15 beads (CI-MPR column) (bovine (fetal bovine serum)) (UniProt P08169); test: CI-MPR column fractionation; enzyme activity of fraction (starting material 1.41)
[3] = target: Soluble cation-independent mannose 6-phosphate receptor (CI-MPR) purified from fetal bovine serum, coupled to Affigel-15 beads (CI-MPR column) (bovine (fetal bovine serum)) (UniProt P08169); test: CI-MPR column fractionation; enzyme activity of fraction eluted with 5 mM M6P (starting material 1.41)

Chain of UniProt P08169 (P08169 45-2313 limits assumed): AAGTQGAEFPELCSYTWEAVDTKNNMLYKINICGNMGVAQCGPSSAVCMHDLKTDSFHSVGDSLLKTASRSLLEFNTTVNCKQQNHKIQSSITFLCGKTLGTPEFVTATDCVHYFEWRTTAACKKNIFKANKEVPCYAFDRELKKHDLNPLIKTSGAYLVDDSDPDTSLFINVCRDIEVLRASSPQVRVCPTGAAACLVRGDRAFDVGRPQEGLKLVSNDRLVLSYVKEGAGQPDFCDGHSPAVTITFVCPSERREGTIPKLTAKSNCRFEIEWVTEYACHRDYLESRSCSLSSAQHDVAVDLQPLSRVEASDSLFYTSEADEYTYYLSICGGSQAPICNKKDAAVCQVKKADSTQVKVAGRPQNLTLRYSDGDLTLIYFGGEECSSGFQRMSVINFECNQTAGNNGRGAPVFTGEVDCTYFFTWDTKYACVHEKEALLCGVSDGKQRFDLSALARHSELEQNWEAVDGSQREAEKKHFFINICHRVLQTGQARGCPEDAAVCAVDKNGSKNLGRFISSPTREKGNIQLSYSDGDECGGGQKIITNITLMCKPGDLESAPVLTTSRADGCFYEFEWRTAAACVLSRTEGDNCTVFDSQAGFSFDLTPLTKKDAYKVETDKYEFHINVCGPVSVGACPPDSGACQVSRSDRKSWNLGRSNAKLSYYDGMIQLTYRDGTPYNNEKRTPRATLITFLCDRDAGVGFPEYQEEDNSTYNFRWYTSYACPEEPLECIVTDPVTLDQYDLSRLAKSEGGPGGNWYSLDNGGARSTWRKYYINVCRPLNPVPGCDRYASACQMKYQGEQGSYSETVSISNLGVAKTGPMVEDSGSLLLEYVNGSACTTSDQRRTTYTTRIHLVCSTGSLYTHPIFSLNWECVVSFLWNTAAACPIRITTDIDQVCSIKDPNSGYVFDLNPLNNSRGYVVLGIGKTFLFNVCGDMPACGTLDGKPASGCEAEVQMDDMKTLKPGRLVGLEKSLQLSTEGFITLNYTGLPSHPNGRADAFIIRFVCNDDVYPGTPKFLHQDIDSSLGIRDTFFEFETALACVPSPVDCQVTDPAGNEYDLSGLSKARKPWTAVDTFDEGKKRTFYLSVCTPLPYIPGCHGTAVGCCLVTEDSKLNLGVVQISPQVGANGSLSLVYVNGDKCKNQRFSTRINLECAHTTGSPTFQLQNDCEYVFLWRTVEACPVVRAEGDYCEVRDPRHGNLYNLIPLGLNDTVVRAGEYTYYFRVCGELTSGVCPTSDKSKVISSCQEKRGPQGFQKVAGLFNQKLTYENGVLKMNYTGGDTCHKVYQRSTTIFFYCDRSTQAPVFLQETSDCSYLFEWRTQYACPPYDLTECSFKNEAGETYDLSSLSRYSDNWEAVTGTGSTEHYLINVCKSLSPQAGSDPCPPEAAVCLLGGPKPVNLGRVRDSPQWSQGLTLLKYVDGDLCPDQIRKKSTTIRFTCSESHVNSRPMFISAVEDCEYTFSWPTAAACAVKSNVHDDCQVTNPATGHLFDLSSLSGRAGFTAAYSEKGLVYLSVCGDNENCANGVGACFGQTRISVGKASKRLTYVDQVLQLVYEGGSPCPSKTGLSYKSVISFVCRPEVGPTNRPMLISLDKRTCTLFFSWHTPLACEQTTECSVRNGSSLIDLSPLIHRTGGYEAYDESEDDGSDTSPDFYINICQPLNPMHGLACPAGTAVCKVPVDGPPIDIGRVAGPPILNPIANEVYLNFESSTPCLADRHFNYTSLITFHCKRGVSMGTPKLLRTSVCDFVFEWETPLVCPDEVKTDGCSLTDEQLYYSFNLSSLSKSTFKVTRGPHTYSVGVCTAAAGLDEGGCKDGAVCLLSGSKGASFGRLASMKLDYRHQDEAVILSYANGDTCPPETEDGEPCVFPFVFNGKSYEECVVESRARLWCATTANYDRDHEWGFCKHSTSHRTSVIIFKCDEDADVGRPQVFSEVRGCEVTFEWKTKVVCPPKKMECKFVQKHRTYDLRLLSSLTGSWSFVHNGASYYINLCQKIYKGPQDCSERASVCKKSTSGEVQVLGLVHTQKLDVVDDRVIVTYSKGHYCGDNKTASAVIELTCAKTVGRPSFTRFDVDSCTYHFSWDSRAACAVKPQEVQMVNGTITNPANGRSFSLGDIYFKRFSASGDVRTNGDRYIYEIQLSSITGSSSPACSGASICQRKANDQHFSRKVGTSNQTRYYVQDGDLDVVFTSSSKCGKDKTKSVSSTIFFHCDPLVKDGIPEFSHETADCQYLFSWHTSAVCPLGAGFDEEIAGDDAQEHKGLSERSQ

oxidized beta-glucuronidase conjugated with phosphopentamannose-hydrazine (enzyme)
percent of starting activity in the M6P elution fraction [1]: 5% | percent of starting activity in the flow through [1]: 19% | O.D. at 400 nm (beta-glucuronidase activity in column flow-through, unbound) [2]: 0.27 OD 400 nm | O.D. at 400 nm (beta-glucuronidase activity in final wash) [2]: 0 OD 400 nm | O.D. at 400 nm (beta-glucuronidase activity in M6P elution, bound) [3]: 0.06 OD 400 nm
